Holding throughout (test): EMSA
Details in all cases: tags: MBP fusion

In one series the target is ZFP SBS#1134 (synthetic, UniProt P08047). The gist of the method: (§1)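 Purified ZFP was titrated against labeled double-stranded target (1 nM or lower, at least 10-fold below expected Kd) carrying the natural binding site with flanks. Binding buffer was 10 mM Tris pH 7.5, 100 mM KCl, 1 mM MgCl2, 0.1 mM ZnCl2, 5 mM DTT, 10% glycerol, 0.02% BSA, with equilibration for at least 45 min. Bound and free target were separated on a 10% polyacrylamide gel.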

Another series concerns the target T1, ZFP SBS#1154 (synthetic, UniProt P08047).
T1 chain: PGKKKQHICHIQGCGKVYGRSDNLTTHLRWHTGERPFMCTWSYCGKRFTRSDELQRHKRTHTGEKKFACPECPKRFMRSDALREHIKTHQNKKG
The gist of the method:
as §1

A further series has as its target T2, ZFP SBS#1132 (synthetic, UniProt P08047).
T2 chain: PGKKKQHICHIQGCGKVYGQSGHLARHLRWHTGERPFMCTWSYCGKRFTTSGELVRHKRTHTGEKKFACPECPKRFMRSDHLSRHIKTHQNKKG
In short, it runs like this:
as §1

A further series deals with T3, ZFP SBS#1133 (synthetic, UniProt P08047).
T3 chain: T2 chain with S21R, G22A, A25E
The gist of the method: as §1

In the next series the target is T4, ZFP SBS#1161 (synthetic).
T4 chain: T2 chain with Q20D, S21R, G22S, T50D, S51R, G52S, E53D, V55T, H81N, S83A
In short, it runs like this:
as §1

Another series deals with T5, ZFP SBS#1160 (synthetic).
T5 chain: T2 chain with Q20D, S21R, G22S, T50Q, G52S, E53N, S83T, R84T
In short, it runs like this: as §1

The target of another series is T6, ZFP SBS#1130 (synthetic).
T6 chain: T2 chain with Q20D, S21R, G22S, H23N, A25T, T50Q, E53D, V55T, R78M, D80H
The gist of the method:
as §1

For another series, the target named is T7, ZFP SBS#1136 (synthetic).
T7 chain: T1 chain with N23A, T26R, R50Q, S51R, D52A, E53H, Q55E, A81T
In short, it runs like this:
as §1

In a further series the target is ZFP SBS#1137 (synthetic). The gist of the method: as §1
The next series concerns the target ZFP SBS#478 (synthetic, UniProt P08047). The gist of the method: as §1
A further series addresses ZFP SBS#476 (synthetic, UniProt P08047). The gist of the method: as §1
The target in another series is ZFP SBS#477 (synthetic). The gist of the method:
as §1

A further series deals with T8, ZFP SBS#1164 (synthetic).
T8 chain: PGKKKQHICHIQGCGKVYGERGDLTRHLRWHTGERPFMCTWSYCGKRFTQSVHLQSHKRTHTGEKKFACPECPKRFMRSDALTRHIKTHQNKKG
In short, it runs like this: as §1

The target in a further series is T9, ZFP SBS#1163 (synthetic).
T9 chain: T8 chain with V52G, Q55T, S56T
In short, it runs like this:
as §1

The next series concerns the target T10, ZFP SBS#1162 (synthetic).
T10 chain: T8 chain with E20Q, R21S, D23A, Q50R, S51A, V52D, H53A, Q55M, S56V
In short, it runs like this: as §1

The next series deals with T11, ZFP SBS#1100 (synthetic).
T11 chain: T8 chain with E20Q, R21S, D23A, Q50R, S51G, V52D, H53A, Q55T
In short, it runs like this: as §1

A further series addresses T12, ZFP SBS#1091 (synthetic).
T12 chain: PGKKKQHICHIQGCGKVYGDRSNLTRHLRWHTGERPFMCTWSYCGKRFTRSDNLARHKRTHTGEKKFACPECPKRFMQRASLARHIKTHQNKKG
The gist of the method:
as §1

For the next series, the target named is T13, ZFP SBS#1169 (synthetic).
T13 chain: T12 chain with R79S, A80S, A83V
The gist of the method:
as §1

The target in a further series is ZFP SBS#259 (synthetic). The gist of the method: as §1
A further series addresses ZFP SBS#1138 (synthetic). The gist of the method:
as §1

The target in the next series is ZFP SBS#1166 (synthetic). The gist of the method: as §1
The target in another series is ZFP SBS#1165 (synthetic). In short, it runs like this: as §1
A further series has as its target ZFP SBS#1167 (synthetic). The gist of the method:
as §1

For another series, the target named is ZFP SBS#1168 (synthetic). The gist of the method: as §1
In a further series the target is T14, ZFP SBS#1090 (synthetic, UniProt P08047).
T14 chain: T1 chain with N23A, T25R, T26E, A81N, R83T, E84Q
In short, it runs like this: as §1

A further series concerns the target ZFP SBS#1135 (synthetic, UniProt P08047). In short, it runs like this:
as §1

The target in a further series is T15, ZFP SBS#1152 (synthetic).
T15 chain: T2 chain with H81N, S83T, R84Q
The gist of the method:
as §1

For a further series, the target named is T16, ZFP SBS#1153 (synthetic).
T16 chain: T2 chain with S21R, G22A, H81N, S83T, R84Q
In short, it runs like this: as §1

The next series has as its target T17, ZFP SBS#472 (synthetic).
T17 chain: T1 chain with D22S, N23H, R50D, S51R, D52S, E53A, Q55A, A81N, R83A, E84R
In short, it runs like this:
as §1

The target in a further series is T18, ZFP SBS#1159 (synthetic).
T18 chain: T2 chain with G22A, H23N, T50Q, S51R, G52A, E53H, V55E, S83T, R84Q
In short, it runs like this: as §1

In a further series the target is ZFP SBS#1158 (synthetic). In short, it runs like this:
as §1

For another series, the target named is T19, ZFP SBS#1124 (synthetic).
T19 chain: T2 chain with E53N, H81A, S83T
The gist of the method: as §1

A further series addresses T20, ZFP SBS#1148 (synthetic).
T20 chain: T1 chain with T26R, E53N, Q55T, S79G, R83T, E84S
The gist of the method:
as §1

Another series addresses ZFP SBS#1149 (synthetic). In short, it runs like this: as §1

Residue numbers refer to the chain shown, from its start.

ZFP SBS#1138 (synthetic), sequence (chain, as listed by the source): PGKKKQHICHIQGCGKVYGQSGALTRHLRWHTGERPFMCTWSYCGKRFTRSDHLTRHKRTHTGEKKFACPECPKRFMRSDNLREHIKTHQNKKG

B1: TGGGGGTGG (dsDNA)
DNA 1: TGGGGGTGG
DNA 2: CCACCCCCA
B1 yielded a Kd in the series with ZFP SBS#1134 of 0.067 nM.

B2: CTGGCGTAG (dsDNA)
DNA 1: CTGGCGTAG
DNA 2: CTACGCCAG
B2 had a dissociation constant (Kd) with ZFP SBS#1154 of 1.04 nM.

B3: GGGGCTGGA (dsDNA)
DNA 1: GGGGCTGGA
DNA 2: TCCAGCCCC
With B3, the dissociation constant Kd came to 0.055 nM with ZFP SBS#1132 and 0.5 nM with ZFP SBS#1133.

B4: GAGGCCGGC (dsDNA)
DNA 1: GAGGCCGGC
DNA 2: GCCGGCCTC
On to B4, for which binding with ZFP SBS#1161 was put at a Kd of 0.45 nM.

B5: TGGGAAGGC (dsDNA)
DNA 1: TGGGAAGGC
DNA 2: GCCTTCCCA
B5 showed an equilibrium dissociation constant (Kd) with ZFP SBS#1160 of 0.415 nM. In other words, the sub-nanomolar range.

B6: GGTGCAGAC (dsDNA)
DNA 1: GGTGCAGAC
DNA 2: GTCTGCACC
B6: in the series with ZFP SBS#1130, the affinity, expressed as Kd, was 0.1 nM.

B7: CCGGGAGTG (dsDNA)
DNA 1: CCGGGAGTG
DNA 2: CACTCCCGG
On to B7, for which the results for the Kd in the series with ZFP SBS#1136 and in the series with ZFP SBS#1137 were 0.225 nM and 0.085 nM, respectively.

B8: GGAGAGGATG (dsDNA)
DNA 1: GGAGAGGATG
DNA 2: CATCCTCTCC
As to B8, the equilibrium dissociation constant (Kd) with ZFP SBS#478 worked out at 60 nM; with ZFP SBS#476 it was 80 nM; with ZFP SBS#477, 100 nM.

B9: GTGTGAGCC (dsDNA)
DNA 1: GTGTGAGCC
DNA 2: GGCTCACAC
For the molecule B9, the figures for the Kd in the series with ZFP SBS#1164 and with ZFP SBS#1163 were 15.4 nM and 1.45 nM, respectively.

B10: GTGTTGGTA (dsDNA)
DNA 1: GTGTTGGTA
DNA 2: TACCAACAC
Consider B10, for which the dissociation constant (Kd) worked out at 0.465 nM in the series with ZFP SBS#1162 and 1.4 nM in the series with ZFP SBS#1100.

B11: GTAGAGGAC (dsDNA)
DNA 1: GTAGAGGAC
DNA 2: GTCCTCTAC
With B11, the Kd in the series with ZFP SBS#1091 worked out at 0.085 nM; in the series with ZFP SBS#1169 it was 0.053 nM.

B12: GCAGAGGAG (dsDNA)
DNA 1: GCAGAGGAG
DNA 2: CTCCTCTGC
For B12, binding with ZFP SBS#259 was characterised by a dissociation constant (Kd) of 250 nM.

B13: CAGGGGGTA (dsDNA)
DNA 1: CAGGGGGTA
DNA 2: TACCCCCTG
The molecule B13 registered a Kd with ZFP SBS#1138 of 0.027 nM.

B14: GCGAAGGTG (dsDNA)
DNA 1: GCGAAGGTG
DNA 2: CACCTTCGC
With B14, the dissociation constant (Kd) came to 0.195 nM with ZFP SBS#1166, 1.4 nM with ZFP SBS#1165 and 0.95 nM with ZFP SBS#1167.

B15: AAGGCGCTG (dsDNA)
DNA 1: AAGGCGCTG
DNA 2: CAGCGCCTT
B15: the Kd with ZFP SBS#1168 turned out to be 2.8 nM; with ZFP SBS#1090, 30.3 nM.

B16: GCGGCGGGG (dsDNA)
DNA 1: GCGGCGGGG
DNA 2: CCCCGCCGC
The molecule B16 returned a dissociation constant Kd with ZFP SBS#1135 of 0.025 nM.

B17: AAGGCTGGA (dsDNA)
DNA 1: AAGGCTGGA
DNA 2: TCCAGCCTT
Turning to B17, the values for the Kd with ZFP SBS#1152 and with ZFP SBS#1153 were 1.6 nM and 8.2 nM, respectively.

B18: GAGGTCTGGA (dsDNA)
DNA 1: GAGGTCTGGA
DNA 2: TCCAGACCTC
Molecule B18 displayed a Kd in the series with ZFP SBS#472 of 80 nM.

B19: AGGGGAGAA (dsDNA)
DNA 1: AGGGGAGAA
DNA 2: TTCTCCCCT
Turning to B19, the Kd amounted to 0.555 nM in the series with ZFP SBS#1159 and 0.1 nM in the series with ZFP SBS#1158.

B20: GTGGATGGA (dsDNA)
DNA 1: GTGGATGGA
DNA 2: TCCATCCAC
In the series with ZFP SBS#1124, B20 came in with a Kd of 0.101 nM. In other words, the sub-nanomolar range.

B21: TTGGAGGAG (dsDNA)
DNA 1: TTGGAGGAG
DNA 2: CTCCTCCAA
Turning to B21, the figures for the equilibrium dissociation constant (Kd) in the series with ZFP SBS#1148 and with ZFP SBS#1149 were 6 pM and 4 pM, respectively.

Values taken from patent US20030068675, “Position dependent recognition of GNN nucleotide triplets by zinc fingers” (published 2003).
